The results in this text go back to patent publication US20240190985A1.

In experiment [1] the target is SUMO-CD99 fusion protein (SUMO fused with the extracellular domain of CD99, residues 23-122) (human) (UniProt P14209). Put plainly: apparent affinity to the recombinant ECD of CD99; method not given, value compared with the bead-based values of FIG. 1F.
The target in experiment [2] is CD99 endogenously expressed on cells (Jurkat, KOPT-K1) (UniProt P14209). Kind of experiment: cell binding; apparent KD; nM molecule; avid.
Sequence of CD99 endogenously expressed on cells (Jurkat, KOPT-K1) (P14209 23-185): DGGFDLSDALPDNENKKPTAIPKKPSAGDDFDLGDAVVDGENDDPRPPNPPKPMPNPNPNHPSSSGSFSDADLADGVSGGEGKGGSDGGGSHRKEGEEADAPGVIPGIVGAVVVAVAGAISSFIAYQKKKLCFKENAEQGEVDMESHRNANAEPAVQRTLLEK
The target is the same in experiment [3]. Put plainly: cell binding; apparent KD; nM Fv; avid.

Sequence of SUMO-CD99 fusion protein (SUMO fused with the extracellular domain of CD99, residues 23-122) (human) (P14209 23-122): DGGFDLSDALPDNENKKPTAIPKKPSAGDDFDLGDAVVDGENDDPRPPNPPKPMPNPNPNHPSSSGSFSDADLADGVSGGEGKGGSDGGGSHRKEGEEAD

Consider “anti-CD99 mouse IgM, HO36-1.1 (ab212605, Abcam) (antibody)”, for which the Kd in experiment [1] was determined as 226 nM. Take “bivalent SAV-10A1 Fab complex (A2D2 streptavidin with biotinylated 10A1 Fab) (from UniProt P22629 37-163; P22629 37-163)”: the Kd in experiment [2] worked out at 2.6 nM; in experiment [3] it was 5.2 nM. The matching figures for “trivalent SAV-10A1 Fab complex (A3D1 streptavidin with biotinylated 10A1 Fab) (from UniProt P22629 37-163; P22629 37-163)”: 1.3 nM and 3.9 nM.
